Measured values from US12258605B2, “Alkane oxidation by modified hydroxylases” (The California Institute of Technology, priority 2005, dated 2025).

Tests used:
[1] = Kinetic constants for n-alkanes: heptane; format: biochemical; conditions: N.m = not measurable
Method: Rate measurements. Initial rates of product formation were determined at 25° C. in 100 mM KPi pH 8.0 buffer using purified protein (100 nM) and a substrate concentration of 1.6 mM. In a 5 mL-vial, 20 μL of alkane solution (in ethanol) were dissolved in 400 μL KPi buffer, to which 500 μL enzyme solution at 100-200 nM was added. Reaction was initiated by adding 100 μL of 5 mM NADPH solution, followed by stirring at 300 rpm for 1 minute, and quenched by adding 200 μL chloroform and stirring at 800 rpm for 10 sec. Solutions were transferred to an Eppendorf tube, to which internal standard (10 μL 25 mM 1-bromohexane in ethanol) was added. Tubes were vortexed for 10 sec and centrifuged for 30 sec at 10,000 g. Organic phase was removed and analyzed by GC. For propane, reactions were carried out in a 5 mL-scale using 100-400 nM purified enzyme, propane-saturated buffer (propane concentration≈1.6 mM) and a final NADPH concentration of 500 μM. Reactions were stopped by addition of 200 μL H2SO4 conc. and analyzed by derivatization to alkyl nitrites followed by GC-ECD analysis as described below.
Products from alkane reactions were identified and quantified by gas chromatography using authentic standards and calibration curves with internal standards. For the reactions with alkanes from pentane to decane, GC analyses were carried out using a Shimadzu GC-17A gas chromatograph, Agilent HP5 column (30 m×0.32 mm×0.1 μm film), 1 μL injection, FID detector, and the following separation program: 250° C. inlet, 250° C. detector, 50° C. oven for 3 min, 5° C./min gradient to 100° C., 25° C./min gradient to 230° C., and 230° C. for 3 min. For butane and propane (TTN) reactions, GC analyses were carried out using a Hewlett-Packard 5890 Series II Plus gas chromatograph, Supelco SPB-1 column (60 m×0.52 mm×0.5 μm film), 0.5 μL injection, FID detector, and the following separation program: 250° C. inlet, 275° C. detector, 80° C. oven for 2 min, 10° C./min gradient to 110° C., 25° C./min gradient to 275° C., and 275° C. for 2.5 min. For ethane and propane (rate) reactions, analysis of reaction mixtures was carried out by derivatization to alkyl nitrites followed by GC-ECD analysis. For laurate, reaction product analysis was carried out by derivatization with N-methyl-N-trimethylsilylheptafluorobutyramide followed by extraction with hexane. Organic solutions were analyzed by FID-GC.
To further investigate the evolution of substrate specificity, kinetic constants for the C5 to C8 alkanes were determined from Michaelis-Menten plots (Table 19). The preference of 35E11 and its evolutionary predecessors for medium-chain alkanes is indicated by their high C8/C5 specificities ((kcat/Km)8/(kcat/Km)5˜100), where Km appears to be the major contributing factor. C8/C5 specificity decreases to ˜5 in the immediate precursors of P450PMO and then switches altogether to the smaller alkane, becoming 0.4 in P450PMO. In P450PMO, catalytic efficiency is highest on propane and decreases along the alkane series, driven by decreasing kcat.

[2] = Chloromethane dehalogenation (Purpald detection of formaldehyde); format: biochemical; conditions: compared with the other mutants of the study
Excerpt: The dehalogenation reaction is based on the hydroxylation of the carbon atom carrying the halogen by a spontaneous (base catalyzed) alpha-elimination reaction which leads to the formation of an aldehyde or ketone depending on the starting haloalkane. The expected reaction mechanism for the dehalogenation of a general alpha-haloalkane is described by the scheme:
To test the feasibility of this approach, chloromethane was chosen as substrate for the dehalogenation reaction. Compared to other haloalkanes, chloromethane (CM) has the advantage to be moderately soluble in water (0.5 g/100 ml) and to lead to formaldehyde as end product of the hydroxylation/alpha-elimination reaction. Formaldehyde can be then readily detected by colorimetric reaction with Purpald as described previously. To test the reaction, two BM-3 mutants from later rounds of random mutagenesis, 35-E1141 and 20-D3, were incubated in the presence of CM and a cofactor regeneration system based on NADP^+, glucose-6-phosphate and glucose-6-phosphate dehydrogenase. Reactions with wild-type P450 BM-3 and without enzyme were included as controls.
The reaction was repeated in the presence of additional BM-3 mutants, including 1-8H, 1-12G2 and the wild-type P450 BM-3 in which A328 was substituted with valine (BM-3-A328V) (FIG. 27B). […] Wild-type BM-3 was substituted with other amino acid residues at position […].
The activity of BM-3-A328V on CM and other substrates such as HME, DME, and propane was further investigated by measuring product formation rate, cofactor consumption and coupling efficiency (Table 14). This mutant was also found to be capable to hydroxylate ethane to ethanol, although only for a total of about 5-10 turnovers. In Table 14 “consumption” rates are expressed as nmol NADPH/nmol enzyme/min and “product formation” rates are expressed as nmol product/nmol enzyme/min.

B1: Wild-type BM-3: wild-type cytochrome P450 BM-3 from Bacillus megaterium, SEQ ID NO:1 (protein, listed as Bacillus megaterium)
chain: TIKEMPQPKTFGELKNLPLLNTDKPVQALMKIADELGEIFKFEAPGRVTRYLSSQRLIKEACDESRFDKNLSQALKFVRDFAGDGLFTSWTHEKNWKKAHNILLPSFSQQAMKGYHAMMVDIAVQLVQKWERLNADEHIEVPEDMTRLTLDTIGLCGFNYRFNSFYRDQPHPFITSMVRALDEAMNKLQRANPDDPAYDENKRQFQEDIKVMNDLVDKIIADRKASGEQSDDLLTHMLNGKDPETGEPLDDENIRYQIITFLIAGHETTSGLLSFALYFLVKNPHVLQKAAEEAARVLVDPVPSYKQVKQLKYVGMVLNEALRLWPTAPAFSLYAKEDTVLGGEYPLEKGDELMVLIPQLHRDKTIWGDDVEEFRPERFENPSAIPQHAFKPFGNGQRACIGQQFALHEATLVLGMMLKHFDFEDHTNYELDIKETLTLKPEGFVVKAKSKKIPLGGIPSPSTEQSAKKVRKKAENAHNTPLLVLYGSNMGTAEGTARDLADIAMSKGFAPQVATLDSHAGNLPREGAVLIVTASYNGHPPDNAKQFVDWLDQASADEVKGVRYSVFGCGDKNWATTYQKVPAFIDETLAAKGAENIADRGEADASDDFEGTYEEWREHMWSDVAAYFNLDIENSEDNKSTLSLQFVDSAADMPLAKMHGAFSTNVVASKELQQPGSARSTRHLEIELPKEASYQEGDHLGVIPRNYEGIVNRVTARFGLDASQQIRLEAEEEKLAHLPLAKTVSVEELLQYVELQDPVTRTQLRAMAAKTVCPPHKVELEALLEKQAYKEQVLAKRLTMLELLEKYPACEMKFSEFIALLPSIRPRYYSISSSPRVDEKQASITVSVVSGEAWSGYGEYKGIASNYLAELQEGDTITCFISTPQSEFTLPKDPETPLIMVGPGTGVAPFRGFVQARKQLKEQGQSLGEAHLYFGCRSPHEDYLYQEELENAQSEGIITLHTAFSRMPNQPKTYVQHVMEQDGKKLIELLDQGAHFYICGDGSQMAPAVEATLMKSYADVHQVSEADARLWLQQLEEKGRYAKDVWAG
With B1 the Km [1] was “n.m”, the kcat [1] was “n.m” and the “total turnover number on CM” value [2] was “no detectable activity”.
